Experimental data published in patent EP2814500B1 (Ecole Polytechnique Fédérale de Lausanne (EPFL), dated 2020).

Assays:
[1] = target: T1, mouse glycophorin-A (GYPA) on the mouse erythrocyte surface (mouse, UniProt P14220 1-168); assay: photo-crosslinking of biotinylated peptide on whole mouse erythrocytes, streptavidin bead purification, streptavidin and anti-GYPA Western blots
[2] = target: T1, mouse glycophorin-A (GYPA) on the mouse …; assay: photo-crosslinking of biotinylated peptide on whole mouse erythrocytes, streptavidin Western blot

Binder | binding result [1] | binding result [2]
H-WMVLPWLPGTLDGGSGCRG-NH2 (also: conjugated to Mts-Atf-biotin, site not given here, Synthetic peptide: the ERY1 12-mer followed by a GGSG linker, Cys and Arg-Gly; also called biotinylated soluble peptide; peptide-biotin complex) | binds | –
H-PLLTVGMDLWPWGGSGCRG-NH2 (not fully specified; also: conjugated to Mts-Atf-biotin, site not given here, Control peptide with the same residues as ERY1 in scrambled order) [mismatch peptide (H2N-PLLTVGMDLWPWGGSGCRG-CONH2) conjugated to Mts-Atf-biotin] | – | no binding
